# Measured values reported in US20150056222A1 (Regeneron, published 2015).
# Read-outs that look alike come from different tables or passages of the source.
# T1: human prolactin receptor (PRLR), cell surface-expressed (human, UniProt P16471 25-622)
# T1 sequence: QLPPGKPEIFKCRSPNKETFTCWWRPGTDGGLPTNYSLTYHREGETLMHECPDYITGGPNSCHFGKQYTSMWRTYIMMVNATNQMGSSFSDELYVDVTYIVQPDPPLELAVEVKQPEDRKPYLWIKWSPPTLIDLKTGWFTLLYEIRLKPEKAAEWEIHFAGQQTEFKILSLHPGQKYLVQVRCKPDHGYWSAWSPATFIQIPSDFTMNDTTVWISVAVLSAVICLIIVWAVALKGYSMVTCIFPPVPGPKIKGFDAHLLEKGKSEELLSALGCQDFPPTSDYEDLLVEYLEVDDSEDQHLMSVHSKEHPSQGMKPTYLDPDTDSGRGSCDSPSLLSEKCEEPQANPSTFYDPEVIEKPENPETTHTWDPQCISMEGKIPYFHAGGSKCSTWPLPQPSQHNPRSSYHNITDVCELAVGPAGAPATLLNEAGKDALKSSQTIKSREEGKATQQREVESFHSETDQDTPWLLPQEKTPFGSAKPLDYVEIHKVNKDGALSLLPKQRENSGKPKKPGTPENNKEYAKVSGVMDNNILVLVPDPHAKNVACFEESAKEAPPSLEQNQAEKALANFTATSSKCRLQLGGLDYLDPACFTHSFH
# T2: mouse PRLR on HEK293 cells (mouse, UniProt Q08501 20-608)
# T2 construct: whole, on cells; also called mPRLR; HEK293/mPRLR
# T2 sequence (looked up): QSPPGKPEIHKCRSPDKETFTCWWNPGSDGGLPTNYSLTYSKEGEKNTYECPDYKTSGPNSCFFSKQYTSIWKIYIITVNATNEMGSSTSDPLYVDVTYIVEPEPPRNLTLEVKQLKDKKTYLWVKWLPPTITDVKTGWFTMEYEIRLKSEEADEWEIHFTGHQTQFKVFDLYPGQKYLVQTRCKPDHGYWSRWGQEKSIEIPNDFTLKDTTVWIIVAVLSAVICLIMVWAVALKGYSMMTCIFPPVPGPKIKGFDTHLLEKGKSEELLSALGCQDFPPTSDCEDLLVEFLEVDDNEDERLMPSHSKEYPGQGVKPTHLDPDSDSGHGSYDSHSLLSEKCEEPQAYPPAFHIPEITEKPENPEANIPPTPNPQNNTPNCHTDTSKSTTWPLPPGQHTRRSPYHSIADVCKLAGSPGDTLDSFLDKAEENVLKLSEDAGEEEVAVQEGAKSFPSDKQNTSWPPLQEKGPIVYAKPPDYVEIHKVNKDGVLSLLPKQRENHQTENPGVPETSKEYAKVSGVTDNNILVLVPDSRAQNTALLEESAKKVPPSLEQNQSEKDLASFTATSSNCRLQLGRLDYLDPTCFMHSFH
# T3: monkey (macaca fascicularis) PRLR on HEK293 cells (macaca fascicularis, UniProt A0A2K5WXK1 25-619)
# T3 construct: also called mfPRLR; HEK293/mfPRLR
# T3 sequence: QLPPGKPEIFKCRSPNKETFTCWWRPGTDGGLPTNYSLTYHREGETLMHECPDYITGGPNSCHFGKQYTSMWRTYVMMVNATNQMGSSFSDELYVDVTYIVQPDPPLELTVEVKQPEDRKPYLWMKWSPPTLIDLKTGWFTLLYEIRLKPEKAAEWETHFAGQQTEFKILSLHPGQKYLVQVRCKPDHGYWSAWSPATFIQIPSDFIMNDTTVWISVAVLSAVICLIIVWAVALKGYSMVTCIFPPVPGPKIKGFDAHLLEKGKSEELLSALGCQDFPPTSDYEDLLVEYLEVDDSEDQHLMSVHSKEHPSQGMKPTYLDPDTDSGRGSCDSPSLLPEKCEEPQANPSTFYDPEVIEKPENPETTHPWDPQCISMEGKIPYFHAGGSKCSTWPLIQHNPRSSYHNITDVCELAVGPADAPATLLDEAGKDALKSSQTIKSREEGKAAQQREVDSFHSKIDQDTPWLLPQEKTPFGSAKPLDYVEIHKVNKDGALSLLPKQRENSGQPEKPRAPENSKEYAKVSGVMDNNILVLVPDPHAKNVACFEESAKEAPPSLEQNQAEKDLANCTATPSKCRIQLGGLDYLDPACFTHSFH
# T4: hPRLR.mFc (soluble dimeric human PRLR) (human)
# T4 construct: dimeric construct
# T4 chain: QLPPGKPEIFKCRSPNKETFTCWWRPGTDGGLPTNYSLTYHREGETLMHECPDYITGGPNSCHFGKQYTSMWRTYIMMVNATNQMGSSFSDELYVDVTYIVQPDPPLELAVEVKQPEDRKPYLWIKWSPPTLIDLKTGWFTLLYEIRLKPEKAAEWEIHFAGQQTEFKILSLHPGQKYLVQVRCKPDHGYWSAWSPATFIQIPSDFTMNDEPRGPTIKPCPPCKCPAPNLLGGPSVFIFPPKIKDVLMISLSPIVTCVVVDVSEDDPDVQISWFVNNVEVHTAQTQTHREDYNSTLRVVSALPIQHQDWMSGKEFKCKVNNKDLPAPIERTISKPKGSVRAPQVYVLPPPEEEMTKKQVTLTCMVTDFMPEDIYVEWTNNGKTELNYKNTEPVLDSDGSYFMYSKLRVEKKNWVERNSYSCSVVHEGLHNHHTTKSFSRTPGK
# T5: mfPRLR.mmh (soluble monomeric macaca fascicularis PRLR) (macaca fascicularis)
# T5 construct: soluble monomeric construct; also called macaca fascicularis (mf) PRLR.mmh
# T5 chain: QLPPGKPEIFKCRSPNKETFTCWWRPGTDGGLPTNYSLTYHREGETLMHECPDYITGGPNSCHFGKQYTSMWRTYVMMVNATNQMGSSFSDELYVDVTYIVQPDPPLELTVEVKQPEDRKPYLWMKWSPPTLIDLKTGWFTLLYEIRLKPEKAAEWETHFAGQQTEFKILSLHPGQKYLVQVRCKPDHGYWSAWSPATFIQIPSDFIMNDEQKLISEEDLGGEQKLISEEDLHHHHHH
# T6: hPRLR.mmh (soluble monomeric human PRLR) (human)
# T6 construct: soluble monomeric construct
# T6 chain: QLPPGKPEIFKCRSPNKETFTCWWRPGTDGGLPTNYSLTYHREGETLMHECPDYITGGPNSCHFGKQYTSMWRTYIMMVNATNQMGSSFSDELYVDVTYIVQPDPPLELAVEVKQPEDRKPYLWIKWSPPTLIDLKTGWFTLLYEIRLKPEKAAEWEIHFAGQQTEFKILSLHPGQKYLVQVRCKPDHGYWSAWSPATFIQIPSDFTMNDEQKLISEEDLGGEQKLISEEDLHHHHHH
# T7: human prolactin receptor (PRLR) on cells (human, UniProt P16471 25-622)
# T7 construct: T47D, T47D#11 and MCF7 carry the endogenous receptor; also called hPRLR; HEK293/hPRLR
# T7 sequence: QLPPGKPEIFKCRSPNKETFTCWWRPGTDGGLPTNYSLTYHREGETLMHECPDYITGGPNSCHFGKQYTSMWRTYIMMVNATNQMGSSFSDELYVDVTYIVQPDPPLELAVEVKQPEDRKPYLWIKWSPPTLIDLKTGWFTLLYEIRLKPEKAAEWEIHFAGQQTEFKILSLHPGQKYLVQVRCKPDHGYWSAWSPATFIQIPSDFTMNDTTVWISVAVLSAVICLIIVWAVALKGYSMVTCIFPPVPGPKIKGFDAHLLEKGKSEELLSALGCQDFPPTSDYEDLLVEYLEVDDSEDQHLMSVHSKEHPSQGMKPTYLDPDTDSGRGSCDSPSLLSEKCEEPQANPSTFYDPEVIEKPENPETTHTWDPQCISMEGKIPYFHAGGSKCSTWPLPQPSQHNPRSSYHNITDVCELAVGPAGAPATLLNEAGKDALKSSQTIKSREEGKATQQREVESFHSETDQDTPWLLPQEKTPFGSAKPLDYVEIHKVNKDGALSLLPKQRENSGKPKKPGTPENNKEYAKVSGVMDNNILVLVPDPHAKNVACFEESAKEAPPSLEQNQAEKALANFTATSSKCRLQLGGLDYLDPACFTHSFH
# T8: IL-6R (human, UniProt P08887 20-468)
# T8 construct: whole, on cells
# T8 sequence (looked up): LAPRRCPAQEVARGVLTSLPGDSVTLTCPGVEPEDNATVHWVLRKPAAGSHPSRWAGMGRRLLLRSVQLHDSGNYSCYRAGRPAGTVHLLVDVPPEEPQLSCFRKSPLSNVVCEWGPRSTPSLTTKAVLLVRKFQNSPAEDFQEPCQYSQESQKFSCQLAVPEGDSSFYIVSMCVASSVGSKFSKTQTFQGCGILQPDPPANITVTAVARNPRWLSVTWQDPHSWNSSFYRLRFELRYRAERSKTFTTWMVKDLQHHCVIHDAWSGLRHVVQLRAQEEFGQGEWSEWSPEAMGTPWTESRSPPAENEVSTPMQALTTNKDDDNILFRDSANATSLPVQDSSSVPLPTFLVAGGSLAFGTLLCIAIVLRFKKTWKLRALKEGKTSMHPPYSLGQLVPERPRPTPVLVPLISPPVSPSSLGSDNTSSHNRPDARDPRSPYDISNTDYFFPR
# How the values were obtained:
# [1] = target: T1, human prolactin receptor (PRLR), cell …; experiment: cell-based or functional assay
# [2] = target: T1, human prolactin receptor (PRLR), cell …; experiment: cell-based or functional assay; remark: listed apart in the source
# [3] = target: T1, human prolactin receptor (PRLR), cell …; experiment: cell-based or functional assay; remark: listed apart in the source
# [4] = target: T1, human prolactin receptor (PRLR), cell …; experiment: cell-based or functional assay; remark: listed apart in the source
# [5] = target: T1, human prolactin receptor (PRLR), cell …; experiment: cell-based or functional assay; remark: listed apart in the source
# [6] = target: T2, mouse PRLR on HEK293 cells; experiment: FACS, HEK293/mPRLR cells; further: test concentration or dose not given here
# [7] = target: T3, monkey (macaca fascicularis) PRLR on …; experiment: FACS, HEK293/mfPRLR cells; further: test concentration or dose not given here
# [8] = target: T4, hPRLR.mFc (soluble dimeric human PRLR); experiment: SPR, 37C, mAb capture
# Method: (§1) Measurements were conducted on a T200 Biacore instrument. Kinetic association (kₐ) and dissociation (kd) rate constants were determined by processing and fitting the data to a 1:1 binding model using Scrubber 2.0 curve fitting software. Binding dissociation equilibrium constants (KD) and dissociative half-lives (t_{1/2}) were calculated from the kinetic rate constants as: KD (M)=kd/kₐ; and […].
# [9] = target: T5, mfPRLR.mmh (soluble monomeric macaca …); experiment: SPR, 37C, mAb capture
# Method: as §1
# [10] = target: T6, hPRLR.mmh (soluble monomeric human PRLR); experiment: SPR, 37C, mAb capture
# Method: as §1
# [11] = target: T7, human prolactin receptor (PRLR) on cells; experiment: FACS, T47D cells (native PRLR); further: test concentration or dose not given here
# [12] = target: T7, human prolactin receptor (PRLR) on cells; experiment: FACS, HEK293/hPRLR cells; further: test concentration or dose not given here
# [13] = target: T7, human prolactin receptor (PRLR) on cells; experiment: cell-based or functional assay
# [14] = target: T8, IL-6R; experiment: FACS on KG-1 cells (endogenous IL-6R), PE anti-human secondary, MFI above isotype control
binder,measurement,setting,value
"H1H6782P-SMCC-DM1 (antibody, human IgG1, V domains shown, DM1 conjugated through an SMCC linker; attachment residues not stated) VH: EVQLVESGGGLVQPGRSLRLSCAASGFTFDDYAMHWVRQAPGKGLEWVSGIIWNSGHIGYGDSVKGRFTISRDNAKKSLYLQMNSLRAEDTALYYCARDSGRYQSYFDYWGQGTLVTVSS VL: DIQMTQSPSTLSASVGDRVTITCRASHIISSWLAWYQQKPGKAPKVLIFKASSLESGVPSRFSGSGSGTEFTLTISSLQPDDFATYYCQQYNTYSRTFGQGTKVEIK","IC50, cell viability, T47D cells",[1],1 nM
"H1H6953N-SMCC-DM1 (antibody, human IgG1, V domains shown, DM1 conjugated through an SMCC linker; attachment residues not stated) VH: EVQLLESGGGLVQPGGTLRLSCAASGFTFSAYAMSWVRQAPGKGLEWVSSINVRAGDTYYADSVKGRFTISRDNSKNTLFLLMNSLRAEDTAAYYCAKARYSSNWGFDFWGQGTLVTVSS VL: DIVMTQSPDSLTVSLGARTTINCQSSQTILHSSNNHNYLAWYQQKPGLPPKLLIYWSSTRESGVPDRFSGSGSGTDFTLTISSLQAEDVAIYYCQQYSNTPYTFGQGTKLEIN","IC50, cell viability, MCF7 cells",[2],82 nM
same,"IC50, cell viability, T47D cells",[2],1.3 nM
same,"IC50, cell viability, T47D/ErbB2 cells",[2],2.4 nM
same,"IC50, cell viability, 293/PRLR cells",[3],0.43 nM
same,"IC50, cell viability, PC3/PRLR cells",[4],0.68 nM
same,"IC50, cell viability, MCF7/PRLR cells",[5],0.33 nM
same,"IC50, cell viability, MCF/PRLR + ErbB2 cells",[5],0.33 nM
same,"IC50, cell viability, NCI-N87/PRLR cells",[5],2.9 nM
"H1H6960N (antibody, human IgG1, V domains shown, also called H2M6960N) VH: EVQLVESGGGLVKPGGSLRLSCAASGITFSSYSMNWVRQAPGKGLEWVSSISTRSSLIHYADSVKGRFTISRDNAKNSLYLQMNSLRDEDTAVYYCARWDAAAAFDYWGQGTLVIVSS VL: DIQLTQSPSFLSASVGDRVTITCWASQGISSYLAWYQQKPGKAPKLLIYVASTLQSGVPSRFSGSGSGTEFTLTISSLQPEDFATYFCQQLNSYPLTFGGGTKVEIK",FACS Cell Binding (Fold Above Background),[6],1 fold above background
same,FACS Cell Binding (Fold Above Background),[7],23 fold above background
same,T½,[8],78.7 min
same,T½,[9],9 min
same,T½,[10],5.8 min
same,FACS Cell Binding (Fold Above Background),[11],33 fold above background
same,FACS Cell Binding (Fold Above Background),[12],29 fold above background
same,"% Internalization relative to Control I (alexa488 intensity in intracellular vesicles at 37 C, T47D cells)",[13],120%
"VV6A9-5 (antibody, V domains shown) VH: EVQLVESGGGLVQPGRSLRLSCAASGFTFDDYALHWVRQAPGKGLEWVSGVSWNGGRIGYADSVKGRFTISRDNAKNSLFLQMNSLRVEDTALYYCAKGRDAFDIWGQGTLVTVSS VL: DIQMTQSPSSVSASVGDRVTITCRASQGISSWLAWYQQKPGKAPKLLIYAASSLQSGVPSRFSGSGSGTDFTLTISSLQPEDFATYYCQHAYSFPYTFGQGTKLEIK",MFI fold over background,[14],7 fold over background
